# In patent publication US20190202883A1 (Takeda / Millennium, published 2019):
# Square brackets hold non-standard residues; d marks the D form. Side chains are listed from the residue outwards. Phe(2-F) = N[C@@H](Cc1ccccc1F)C(=O)O; αMeF = C[C@](N)(Cc1ccccc1)C(=O)O; Iva = CC[C@](C)(N)C(=O)O; Oda = not defined here; Aib = CC(C)(N)C(=O)O
# T1: human GIPR (human, UniProt P48546 22-466)
# T1 sequence (looked up): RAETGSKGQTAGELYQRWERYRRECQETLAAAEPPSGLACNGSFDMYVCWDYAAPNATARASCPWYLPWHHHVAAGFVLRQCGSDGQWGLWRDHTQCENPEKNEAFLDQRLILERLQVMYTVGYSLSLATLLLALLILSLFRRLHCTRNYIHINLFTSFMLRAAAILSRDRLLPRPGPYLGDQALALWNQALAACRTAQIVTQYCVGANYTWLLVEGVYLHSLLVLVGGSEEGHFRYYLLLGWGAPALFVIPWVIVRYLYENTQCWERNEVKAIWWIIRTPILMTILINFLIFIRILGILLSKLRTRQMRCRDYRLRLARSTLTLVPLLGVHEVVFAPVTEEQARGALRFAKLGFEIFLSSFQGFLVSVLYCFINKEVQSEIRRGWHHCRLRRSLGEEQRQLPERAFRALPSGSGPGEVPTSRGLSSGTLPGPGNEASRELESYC
# T2: human NPY2R (human, UniProt P49146 1-381)
# T2 sequence (looked up): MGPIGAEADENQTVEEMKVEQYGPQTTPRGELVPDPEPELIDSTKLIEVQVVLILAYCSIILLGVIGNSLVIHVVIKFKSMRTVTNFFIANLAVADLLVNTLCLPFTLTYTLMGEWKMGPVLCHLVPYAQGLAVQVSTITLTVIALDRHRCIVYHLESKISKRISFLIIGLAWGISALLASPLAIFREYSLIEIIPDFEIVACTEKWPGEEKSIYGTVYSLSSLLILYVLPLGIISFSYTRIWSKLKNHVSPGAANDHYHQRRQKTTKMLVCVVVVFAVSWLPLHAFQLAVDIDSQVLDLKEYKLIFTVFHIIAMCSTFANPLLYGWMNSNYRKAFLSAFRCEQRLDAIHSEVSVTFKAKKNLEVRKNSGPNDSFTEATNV
# How the values were obtained:
# Assay in all cases: cell-based or functional assay
# [1] = molecular target: human GLP-1R (human, UniProt P43220 24-463)
# [2] = molecular target: T1, human GIPR
# [3] = molecular target: T2, human NPY2R
Binder,"Agonist activity (EC50), Cre-luc reporter assay [1] [nM]","Agonist activity (EC50), Cre-luc reporter assay [2] [nM]","Agonist activity (EC50), Cre-luc reporter assay [3] [nM]"
Me-Y[Aib]EGT[αMeF]TSDK([Gly-Gly-Gly-Gly-Oda])SK[Aib]LDKQRQ[Iva]EFVRHLLNK[Aib]TRQRY-NH2 (reading uncertain; also: printed as Me-Tyr-Aib-Glu-Gly-Thr-αMePhe-Thr-Ser-Asp-Lys(-Gly-Gly-Gly-Gly-Oda)-Ser-Lys-Aib-Leu-Asp-Lys-Gln-Arg-Gln-Iva-Glu-Phe-Val-Arg-His-Leu-Leu-Asn-Lys-Aib-Thr-Arg-Gln-Arg-Tyr-NH2),4.5,0.38,1.2
H-Y[Aib]EGT[αMeF]TSDK([Gly-Gly-Gly-Gly-Pal])[Aib]I[Aib]LEKQRQ[Iva]EFVRHLLNK[Aib]TRQRY-NH2,0.061,0.049,0.057
Me-Y[Aib]EGT[αMeF]TSDK([Gly-Gly-Gly-Gly-Pal])[Aib]I[Aib]LEKQRQ[Iva]EFVRHLLNK[Aib]TRQRY-NH2,0.13,0.082,0.067
Me-Y[Aib]EGT[αMeF]TSDK([Gly-Gly-Gly-Gly-Oda])SI[Aib]LDKQRQ[Iva]EFVRHLLNK[Aib]TRQRY-NH2 (reading uncertain; also: printed as Me-Tyr-Aib-Glu-Gly-Thr-αMePhe-Thr-Ser-Asp-Lys(-Gly-Gly-Gly-Gly-Oda)-Ser-Ile-Aib-Leu-Asp-Lys-Gln-Arg-Gln-Iva-Glu-Phe-Val-Arg-His-Leu-Leu-Asn-Lys-Aib-Thr-Arg-Gln-Arg-Tyr-NH2),1.9,0.091,2.4
H-Y[Aib]EGT[αMeF]TSDK([Gly-Gly-Gly-Gly-Pal])SK[Aib]LDKQRQ[Iva]EFVRHLLNK[Aib]TRQRY-NH2,0.13,0.091,0.059
H-Y[Aib]EGT[αMeF]TSDK([Gly-Gly-Gly-Gly-Pal])[Aib]K[Aib]LDKQRQ[Iva]EFVRHLLNK[Aib]TRQRY-NH2,0.06,0.044,0.064
Me-Y[Aib]EGT[αMeF]TSDK([Gly-Gly-Gly-Gly-Pal])[Aib]I[Aib]LDKQAQ[Iva]EFVRHLLNK[Aib]TRQRY-NH2,0.043,0.038,0.03
Me-Y[Aib]EGT[αMeF]TSDK([Gly-Gly-Gly-Gly-Pal])[Aib]K[Aib]LDKQRQ[Iva]EFVRHLLNK[Aib]TRQRY-NH2,0.069,0.051,0.068
H-Y[Aib]EGT[αMeF]TSDK([Gly-Gly-Gly-Gly-Oda])[Aib]K[Aib]LDKQRQ[Iva]EFVRHLLNK[Aib]TRQRY-NH2 (reading uncertain; also: printed as H-Tyr-Aib-Glu-Gly-Thr-αMePhe-Thr-Ser-Asp-Lys(-Gly-Gly-Gly-Gly-Oda)-Aib-Lys-Aib-Leu-Asp-Lys-Gln-Arg-Gln-Iva-Glu-Phe-Val-Arg-His-Leu-Leu-Asn-Lys-Aib-Thr-Arg-Gln-Arg-Tyr-NH2),0.94,1,1.5
H-Y[Aib]EGT[αMeF]TSDK([Gly-Gly-Gly-Gly-Oda])[Aib]I[Aib]LDKQAQ[Iva]EFVRHLLNK[Aib]TRQRY-NH2 (reading uncertain; also: printed as H-Tyr-Aib-Glu-Gly-Thr-αMePhe-Thr-Ser-Asp-Lys(-Gly-Gly-Gly-Gly-Oda)-Aib-Ile-Aib-Leu-Asp-Lys-Gln-Ala-Gln-Iva-Glu-Phe-Val-Arg-His-Leu-Leu-Asn-Lys-Aib-Thr-Arg-Gln-Arg-Tyr-NH2),0.078,0.074,2.4
H-Y[Aib]EGT[αMeF]TSDK([Gly-Gly-Gly-Gly-Oda])[Aib]I[Aib]LEKQRQ[Iva]EFVRHLLNK[Aib]TRQRY-NH2 (reading uncertain; also: printed as H-Tyr-Aib-Glu-Gly-Thr-αMePhe-Thr-Ser-Asp-Lys(-Gly-Gly-Gly-Gly-Oda)-Aib-Ile-Aib-Leu-Glu-Lys-Gln-Arg-Gln-Iva-Glu-Phe-Val-Arg-His-Leu-Leu-Asn-Lys-Aib-Thr-Arg-Gln-Arg-Tyr-NH2),0.25,0.52,2.7
H-Y[Aib]EGT[αMeF]TSDK([Gly-Gly-Gly-Gly-Pal])[Aib]I[Aib]LDKQAQ[Iva]EFVRHLLNK[Aib]TRQRY-NH2,0.042,0.041,0.038
Me-Y[Aib]EGT[αMeF]TSDK([Gly-Gly-Gly-Gly-Pal])SK[Aib]LDKQRQ[Iva]EFVRHLLNK[Aib]TRQRY-NH2,0.073,0.048,0.02
H-Y[Aib]EGT[αMeF]TSDK([Gly-Gly-Gly-Gly-Pal])[Aib]I[Aib]LDKQRQ[Iva]EFVRHLLNK[Aib]TRQR[Phe(2-F)]-NH2,0.38,0.35,0.22
H-Y[Aib]EGT[αMeF]TSDK([Gly-Gly-Gly-Gly-Oda])SK[Aib]LDKQRQ[Iva]EFVRHLLNK[Aib]TRQRY-NH2 (reading uncertain; also: printed as H-Tyr-Aib-Glu-Gly-Thr-αMePhe-Thr-Ser-Asp-Lys(-Gly-Gly-Gly-Gly-Oda)-Ser-Lys-Aib-Leu-Asp-Lys-Gln-Arg-Gln-Iva-Glu-Phe-Val-Arg-His-Leu-Leu-Asn-Lys-Aib-Thr-Arg-Gln-Arg-Tyr-NH2),1.3,0.61,1.3
Me-Y[Aib]EGT[αMeF]TSDK([Gly-Gly-Gly-Gly-Oda])[Aib]I[Aib]LDKQAQ[Iva]EFVRHLLNK[Aib]TRQRY-NH2 (reading uncertain; also: printed as Me-Tyr-Aib-Glu-Gly-Thr-αMePhe-Thr-Ser-Asp-Lys(-Gly-Gly-Gly-Gly-Oda)-Aib-Ile-Aib-Leu-Asp-Lys-Gln-Ala-Gln-Iva-Glu-Phe-Val-Arg-His-Leu-Leu-Asn-Lys-Aib-Thr-Arg-Gln-Arg-Tyr-NH2),0.15,0.074,3.3
